# Legend:
# [1] = biological target: T1, N-NR1 (NH2-terminal domain of NR1, a.a 1-561) fusion protein (Rattus norvegicus, UniProt P35439); test: Phage ELISA, binding to immobilized N-NR1 fusion protein; parameters: Inhibition of Mag-4.1 phage binding to N-NR1 by synthetic peptide: dose or concentration left out as unconfirmed
# T1 construct: N-NR1 (aa. 1-561); made in house
# Protocol: Phage selection. Six wells of a 96-well plate were precoated with mAb8610 ([…]) at 37° C. for one hour, blocked with 1% BSA for 30 minutes at 37° C. The N-NR1 fusion protein was first released by PIPLC digest after extensive washes of cells that express N-NR1. The released N-NR1 protein in the MEM medium was first treated by endo-F (1 unit per 10 mg protein) for overnight at 37° C. The treated preparation was affinity-purified by mAb8610 capture on the plates (1 mg of N-NR1 per well) at 22° C. for one hour. The phage binding was carried out by incubating with a total of 10^12 tu (transducing units) of a X9 library with a complexity of 1.2×10^10 recombinants. The binding buffer contains 10 mM Tris-HCl (pH 8.1), 100 mM NaCl and 1 mM EDTA for 3 hours at 4° C. Unbound material was removed with three washes of the binding buffer. The bound phagemid particles were recovered by adding […] of 0.1 M glycine-HCl (pH 2.2). After 10 minutes elution at room temperature, the elutes were immediately neutralized by mixing with equal volume of 0.1 M Trisbase (pH 9.2). The recovered phagemids were amplified in bacteria, and resultant phage preparations were used for the following round of purification.
# After five consecutive rounds of selection, the ELISA tests were performed using the supernatant of overnight cultures in the presence of 100 mM Hepes-NaOH (pH7.5) and 100 mM NaCl. The wells were coated with receptors according to the procedure described above. The bound phage particles were first detected by using rabbit anti-phage antibody (1:10,000) followed by alkaline phosphatase (AP)-conjugated secondary antibody (1:5,000, Sigma). After washing the wells with the binding buffer, […] of developing solution containing 1 mg/ml pNPP (Sigma, Mo.) in 10 mM diethanolamine-HCl (pH 9.7) was added. The alkaline phosphatase activity was monitored at the wavelength of 408 nm using a microtiter plate reader. Phage purification. The bacteria in culture medium containing phage was removed by centrifugation at 5,000×g for 30 minutes. […]
# [2] = biological target: T2, functional NMDA receptor channels (NR1 and NR2A) in HEK cells (Rattus norvegicus, UniProt P35439); test: Phage-immunostain of HEK cells transiently expressing NR1 and NR2A; format: cell-based; details: 500 mM synthetic Mag-4.1 peptide
# T2 construct: expressed in transfected cells; host or cells: HEK cells, transient cotransfection
# Protocol: Phage-immunostain and Phage-FACS detection. The purified phage preparation was used to stain live cells. For immunostain the cells were washed three times with cold PBS. Phage binding were initiated by incubating with the cells with purified phage (10^10 tu per ml) on ice for 1 hour. After incubation, the unbound phage was removed by three washes of cold PBS supplemented with 1% bovine serum albumin (BSA). the fixation was carried out using 2% PFA overnight at 4C. The phage-binding was detected first by rabbit anti-phage antibody (1:10,000 dilution) followed by Fluorescein labeled anti-rabbit antibody (10 mg/ml, Vector Lab, Calif.). The fluorescence labeled cells were visualized under a fluorescence microscope. For Phage-FACS, the cell preparation procedures were identical except the cells were first dislodged from the dishes by incubating with PBS supplemented with 5 mM EDTA.
# [3] = biological target: T3, N-NR1 protein on cell surface of CHO cells (Rattus norvegicus, UniProt P35439); test: Phage-immunostain of CHO cells expressing N-NR1 on cell surface; format: cell-based, Chinese hamster; details: 500 mM Mag-4.1 peptide
# T3 construct: N-NR1 (aa. 1-561); expressed in transfected cells
# Protocol: (§1) Immunostain and Fluorescence Activated Cell Sorting (FACS). The cells were grown on cover glass coated with 1% gelatin. Prior to addition of immunoglobulin, the cells were first washed three times with cold PBS and fixed with 2% paraformaldehyde (PFA) overnight. After washing the cells with cold PBS, the fixed cells were incubated with mAb8610 (1 mg /ml) at room temperature for 1 hour. The binding of mAb8610 was detected by incubating with anti-mouse conjugated with Texas-red (15 mg per ml) 1 hour at 4C. The immunostain was visualized by a Nikon Optiphot-2 fluorescent microscope and images were collected/digitalized using a computer. Cytometry of stained cells were analyzed on either FACScan or FACStar Plus Sorter (Becton-Dickinson, San Jose, Calif.). An Argon laser is used and tuned at 488 nm. The green fluorescence was recorded in the FLI emission channel.
# (§2) Phage-immunostain and Phage-FACS detection. The purified phage preparation was used to stain live cells. For immunostain the cells were washed three times with cold PBS. Phage binding were initiated by incubating with the cells with purified phage (10^10 tu per ml) on ice for 1 hour. […] The phage-binding was detected first by rabbit anti-phage antibody (1:10,000 dilution) followed by Fluorescein labeled anti-rabbit antibody (10 mg/ml, Vector Lab, Calif.). The fluorescence labeled cells were visualized under a fluorescence microscope. […]
# [4] = biological target: T4, N-NR1 protein on CHO cells (Rattus norvegicus, UniProt P35439); test: Phage-FACS of CHO cells expressing N-NR1; format: cell-based, Chinese hamster
# T4 construct: N-NR1 (aa. 1-561); expressed in transfected cells
# Protocol: as §1, §2
# [5] = biological target: N-NR1 fusion protein (putative amino-terminal domain of NR1, a.a 1-561, fused to the mAb8610 epitope tag and GPI anchor signal sequence) (UniProt P35439); test: phage-overlay on nitrocellulose after denaturation-renaturation
molecule,measurement,setting,value
LEAWFLQYI [Mag-4.2],Phage binding to N-NR1,"[1]; phage ELISA, immobilized N-NR1",specifically association with N-NR1
GGGLNDWFITYIGGG [Mag-4.1 peptide],Inhibition of phage stain signal on NR1/NR2A HEK cells by synthetic peptide,[2],completely inhibited
same,Inhibition of phage staining signal by synthetic peptide,[3],completely inhibited
same,"Inhibition of FACS phage stain signal by synthetic peptide, low N-NR1 CHO cells",[4]; 500 mM Mag-4.1 peptide (FIG. 5C),completely inhibited
same,"Effect of synthetic peptide on FACS staining signal, 1:1 mixture of low and high N-NR1 CHO cells",[4]; 500 mM Mag-4.1 peptide (FIG. 5E),the staining signal is sensitive to Mag-4.1 peptide
same,Affinity of monovalent peptide,[1]; competition phage ELISA (FIG. 1C),low affinity
same,Inhibition of Mag-4.1 phage binding to N-NR1 by synthetic peptide,"[1]; synthetic peptide, phage ELISA",completely inhibited
"LNDWFITYI (peptide, not shown: large carriers) [Mag-4.1 phage]",least amount of N-NR1 protein per lane at which specific binding is detected,[5],20 ng
